B1: Cyclin-F, residues 28 to 80; numbered along this chain, P41002 (parent)
chain: RNLTILSLPEDVLFHILKWLSVEDILAVRAVHSQLKDLVDNHASVWACASFQE

Variants of: B1
Assay: abundance fitness (aPCA) (normalised: wild type 0, dead -1); higher = more abundant; growth selection in yeast, the domain comes from the species named
Settings: Homo sapiens

Abundance fitness of substitutions, site by site:
D40: L -0.919, K -0.805, Y -0.862, R -0.749, G -0.77, W -1.03, S -0.432, N -0.664, E -0.684, F -0.828, Q -0.49, P -0.791, C -0.912, M -0.884, V -0.606, T -0.444, A -0.917, H -0.552
V31: G -0.672, Y -0.964, E -1.16, N -0.586, T 0.124, D -0.729, Q -0.532, M -0.681, F -0.747, S 0.191, I -0.594, A -0.046, R -0.754, C -0.056, W -0.769, K -0.809, H -0.976
D37: V -0.049, F -0.222, N -0.017, M 0.158, P -1.02, T 0.076, C 0.012, L 0.03, Q 0.075, G -0.044, K 0.356, W -0.42, A 0.027, I 0.228, H -0.086, S 0.006
K36: S -0.788, D -0.886, W -0.626, R 0.054, H -0.445, N -0.779, Y -0.883, F -0.811, M -0.932, A -0.561, L -0.625, G -0.891, C -0.915, Q -0.609, T -0.723, I -0.986, P -0.573, E -0.771, V -0.785
V45: C -0.027, P -0.061, H 0.137, L -0.076, R -0.031, S 0.149, N 0.031, G -0.149, Y 0.154, F -0.016, K 0.181, T 0.131, E 0.362, D 0.289, I -0.026, M -0.082, W 0.1
V39: C -0.245, I -0.074, E -0.819, K -0.767, D -0.655, A -0.341, Q -0.362, S -0.445, L -0.287, F -0.819, R -0.793, M -0.781, W -0.648, T -0.787, P -0.931
R29: L -0.833, S -0.655, Y -0.713, Q -0.801, E -0.863, C -0.635, F -0.574, I -0.793, T -0.909, W -0.814, G -0.795, M -0.541, H -0.65, N -0.955, A -0.827, V -0.541, P -0.716
A47: C -0.218, E -0.365, D -0.062
S44: Y -0.428, D 0.212, G 0.05, A -0.119, L -0.499, H 0.222, T -0.307, V -0.535, R -0.281, N 0.11, W -0.485, F -0.278, Q -0.306, M -0.223, K -0.104
A27: I -0.285, Q -0.089, G -0.787, W -0.622, M -0.273, K -0.175, R -0.047, Y -0.876, T 0.087, C -0.091, F -0.945, V -0.238, P -0.44, E -0.715, H -0.259
H42: S -0.347, F -0.418, M -0.64, D -0.746, V -0.716, K -0.068, W -0.45, I -0.075, Y -0.365, T -0.487, E -0.8, C -0.237, R -0.175, L -0.546, G -0.467, A -0.442, P -0.526, N -0.35
N41: R 0.241, W -0.733, D -0.435, S 0.052, T -0.131, E -0.039, M -0.272, F -0.692, L -0.306, I -0.455, A -0.071, G -0.033, V -0.484, K 0.231, H -0.035, Y -0.569, Q 0.128, P -0.59
A30: N -0.356, W -0.836, K -0.339, Q -0.031, T -0.04, V -0.125, M 0.188, S 0.111, R 0.053, C 0.089, I -0.264, P -0.844, F -0.62, L 0.377
Q34: D -0.446, E -0.455, P -0.807, T 0.004, I -0.129, C -0.248, A -0.111, N -0.417, M -0.156, F -0.4, V -0.126, Y -0.374, R 0.109, S -0.06, H -0.121, W -0.753, L -0.368
L26: Y -0.386
L38: C 0.17, F 0.07, G -0.561, K -0.34, Q -0.682, N -0.906, P -0.935, D -0.758, E -0.872, M -0.008, S -0.302, H -0.12, T -0.133, V 0.273, W -0.214, Y -0.151, R -0.633, A -0.075, I 0.244
H32: M -1.09, V -0.532, E -0.653, S 0.096, L -0.757, P -0.737, N 0.262, R -0.787, C 0.209, W -0.937, Y -0.895, I -0.825, G -0.591, K -0.912, T -0.503, A -0.438
A43: W -0.264, L -0.605, R -0.273, G -0.409, P -0.039, N -0.303, V -0.616, T -0.416, C -0.006, I -0.577, E -0.343
S33: G -0.554, Q -0.672, Y -0.791, F -0.801, H -0.443, E -0.675, W -0.48, A -0.648, M -0.72, N -0.67, T -0.247, V -0.544, C -0.828, I -0.855, K -0.294, R -0.158
W46: R -0.058, V -0.415, L -0.114, F -0.364, D -0.043, Q -0.136, C -0.4, H -0.38, T -0.3, E -0.016, I -0.294, N -0.128, M -0.27, P -0.386, G -0.065, Y -0.469, A -0.283, K -0.289, S -0.314
L35: I -0.158, D -0.528, Y -0.687, H -0.831, F -0.172, Q -0.861, V -0.768, W -0.567, R -0.884, K -0.805, C -0.643, E -0.745, A -0.772, P -0.842, S -0.786
V28: Q -0.716, P -0.88, W -0.705, D -0.885, G -0.759, E -0.82, F -0.396, H -0.372, M 0.036, C -0.173, A -0.774, I -0.184, T -0.615, R -0.833, K -0.71, N -1.09, L 0.168, S -0.823

— the Human Domainome abundance scans (Beltran et al. 2025)
